Consider one substance from PMC12084609, “Structural insights into small-molecule agonist recognition and activation of complement receptor C3aR” (The EMBO Journal, 2025).

Numbering of substitutions follows the chain as printed. “And” between values parts separate entries of the source, which are not always exact repeats. Equal entries are not always repeated.

Broadly, the IC50 is the point on the concentration scale where inhibition reaches its midpoint.

Assay [1] deals with T1, C3aR WT (Homo sapiens, UniProt Q16581).
T1 construct: expressed in transfected cells; host or cells: HEK293T
T1 sequence (Q16581 1-482): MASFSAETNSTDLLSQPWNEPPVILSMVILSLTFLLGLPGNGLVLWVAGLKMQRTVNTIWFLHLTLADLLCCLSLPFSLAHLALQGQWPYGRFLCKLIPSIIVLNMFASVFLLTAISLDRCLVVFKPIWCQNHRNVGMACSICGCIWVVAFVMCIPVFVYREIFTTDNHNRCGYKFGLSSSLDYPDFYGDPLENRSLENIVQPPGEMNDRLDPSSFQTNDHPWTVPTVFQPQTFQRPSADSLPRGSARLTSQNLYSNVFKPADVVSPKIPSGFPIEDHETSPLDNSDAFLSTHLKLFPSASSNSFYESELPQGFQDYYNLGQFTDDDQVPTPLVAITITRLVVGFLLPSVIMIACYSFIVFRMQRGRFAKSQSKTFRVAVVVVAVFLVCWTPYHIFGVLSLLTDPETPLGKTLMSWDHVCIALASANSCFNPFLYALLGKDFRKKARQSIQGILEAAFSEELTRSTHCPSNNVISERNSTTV
The assay is described as follows: GloSensor-based cAMP assay, WT C3aR (HEK293T). It is filed as cell-based. The protocol:
(§1) HEK293T cells were seeded on 6-well plates (NEST) and transfected with pGlosensor™-22F plasmids (Promega) and pcDNA3.1 plasmids encoding C3aR or its mutants an with N-terminal FLAG tag. After 48 h, cells were detached with Accutase solution (Sigma-Aldrich) and washed with PBS, and resuspended in assay buffer (CO2-independent medium with 0.5 mg mL^−1D-luciferin). 100,000–200,000 cells were seeded on 96-well white bottom plates (SPL) and incubated at 37 °C for 45 min followed by 45 min incubation at room temperature. After 90 min of incubation, basal luminescence signals were recorded. In total, 25 μl of test ligand with various concentrations and 1 μM Forskolin (Sigma-Aldrich) were treated to the cells and luminescence signals were measured by Tristar 2 LB 942 multimode reader (Berthold). […] Relative luminescence unit (%) was calculated with the signal of wells treated with vehicle as 0% and the signal of wells treated with 1 μM Forskolin as 100% (DiRaddo et al, [2014]). Nonlinear regression was performed using a three-parameter logistic equation.
In general terms: Cyclic AMP is a second messenger, typically raised through Gs and lowered through Gi signalling.

The target of assay [2] is T2, C3aR Y174^ECL2A (Homo sapiens, UniProt Q16581, Y174A).
T2 construct: expressed in transfected cells; host or cells: HEK293T
T2 sequence (Q16581 1-482 Y174A): T1 sequence (Q16581 1-482) with Y174A
The experiment in a line: GloSensor-based cAMP assay, C3aR mutant Y174A. The settings on record: for cAMP response (% Forskolin): Y174ECL2A, single replicates. Format: cell-based. The protocol:
as §1

“C3a: anaphylatoxin C3a, natural peptide ligand of C3aR (a 77-amino acid peptide), Sigma-Aldrich”: the “cAMP response (% Forskolin)” value in assay [1] (Log[ligand (M)] -7, individual replicates) is 13.23 % Forskolin and 9.10 % Forskolin and 12.07 % Forskolin and 14.17 % Forskolin and 11.07 % Forskolin and 5.64 % Forskolin and 5.88 % Forskolin and 10.80 % Forskolin and 18.77 % Forskolin and 9.30 % Forskolin and 7.84 % Forskolin and 11.11 % Forskolin and 5.15 % Forskolin and 8.46 % Forskolin and 12.88 % Forskolin and 7.97 % Forskolin and 4.89 % Forskolin and 13.21 % Forskolin and 8.34 % Forskolin and 9.36 % Forskolin and 10.44 % Forskolin; in assay [1] (Log[ligand (M)] -8, individual replicates), 14.46 % Forskolin and 11.08 % Forskolin and 11.75 % Forskolin and 14.58 % Forskolin and 33.21 % Forskolin and 8.44 % Forskolin and 9.26 % Forskolin and 14.67 % Forskolin and 23.44 % Forskolin and 12.45 % Forskolin and 9.97 % Forskolin and 12.70 % Forskolin and 7.51 % Forskolin and 11.02 % Forskolin and 17.00 % Forskolin and 9.96 % Forskolin and 6.25 % Forskolin and 18.05 % Forskolin and 9.98 % Forskolin and 10.68 % Forskolin and 14.94 % Forskolin; in assay [1] (Log[ligand (M)] -9, individual replicates), 89.10 % Forskolin and 91.75 % Forskolin and 55.83 % Forskolin and 67.46 % Forskolin and 97.65 % Forskolin and 80.78 % Forskolin and 91.72 % Forskolin and 89.77 % Forskolin and 62.11 % Forskolin and 58.26 % Forskolin and 94.14 % Forskolin and 92.02 % Forskolin and 88.40 % Forskolin and 88.60 % Forskolin and 88.28 % Forskolin and 92.79 % Forskolin and 82.03 % Forskolin and 98.67 % Forskolin and 72.46 % Forskolin and 83.05 % Forskolin and 92.23 % Forskolin; in assay [1] (Log[ligand (M)] -10, individual replicates), 100.49 % Forskolin and 92.00 % Forskolin and 96.47 % Forskolin and 95.65 % Forskolin and 99.73 % Forskolin and 94.19 % Forskolin and 91.55 % Forskolin and 96.59 % Forskolin and 91.09 % Forskolin and 100.53 % Forskolin and 103.10 % Forskolin and 100.18 % Forskolin and 107.39 % Forskolin and 101.42 % Forskolin and 99.05 % Forskolin and 90.86 % Forskolin and 91.78 % Forskolin and 95.04 % Forskolin and 92.70 % Forskolin and 92.81 % Forskolin and 96.03 % Forskolin; in assay [1] (Log[ligand (M)] -11, individual replicates), 101.69 % Forskolin and 104.79 % Forskolin and 99.76 % Forskolin and 97.79 % Forskolin and 100.01 % Forskolin and 95.95 % Forskolin and 100.56 % Forskolin and 98.17 % Forskolin and 98.43 % Forskolin and 104.54 % Forskolin and 103.48 % Forskolin and 99.03 % Forskolin and 107.10 % Forskolin and 101.90 % Forskolin and 98.42 % Forskolin and 97.15 % Forskolin and 94.72 % Forskolin and 92.05 % Forskolin and 96.59 % Forskolin and 94.55 % Forskolin and 98.62 % Forskolin; in assay [1] (Log[ligand (M)] -12, individual replicates) it was 96.64 % Forskolin and 93.74 % Forskolin and 99.06 % Forskolin and 103.59 % Forskolin and 106.40 % Forskolin and 103.79 % Forskolin and 101.64 % Forskolin and 99.02 % Forskolin and 93.95 % Forskolin and 101.82 % Forskolin and 99.95 % Forskolin and 96.51 % Forskolin and 98.16 % Forskolin and 96.67 % Forskolin and 94.02 % Forskolin and 101.30 % Forskolin and 98.69 % Forskolin and 95.26 % Forskolin and 98.94 % Forskolin and 96.13 % Forskolin and 98.01 % Forskolin. Further, the “cAMP response (% Forskolin)” value in assay [1] (WT, Log[C3a (M)] -7, single replicates) is 13.23 % Forskolin and 9.10 % Forskolin and 12.07 % Forskolin and 14.17 % Forskolin and 11.07 % Forskolin and 5.64 % Forskolin and 5.88 % Forskolin and 10.80 % Forskolin and 18.77 % Forskolin and 9.30 % Forskolin and 7.84 % Forskolin and 11.11 % Forskolin and 5.15 % Forskolin and 8.46 % Forskolin and 12.88 % Forskolin and 7.97 % Forskolin and 4.89 % Forskolin and 13.21 % Forskolin and 8.34 % Forskolin and 9.36 % Forskolin and 10.44 % Forskolin; in assay [1] (WT, Log[C3a (M)] -8, single replicates) it was 14.46 % Forskolin and 11.08 % Forskolin and 11.75 % Forskolin and 14.58 % Forskolin and 33.21 % Forskolin and 8.44 % Forskolin and 9.26 % Forskolin and 14.67 % Forskolin and 23.44 % Forskolin and 12.45 % Forskolin and 9.97 % Forskolin and 12.70 % Forskolin and 7.51 % Forskolin and 11.02 % Forskolin and 17.00 % Forskolin and 9.96 % Forskolin and 6.25 % Forskolin and 18.05 % Forskolin and 9.98 % Forskolin and 10.68 % Forskolin and 14.94 % Forskolin; in assay [1] (WT, Log[C3a (M)] -9, single replicates) it was 89.10 % Forskolin and 91.75 % Forskolin and 55.83 % Forskolin and 67.46 % Forskolin and 97.65 % Forskolin and 80.78 % Forskolin and 91.72 % Forskolin and 89.77 % Forskolin and 62.11 % Forskolin and 58.26 % Forskolin and 94.14 % Forskolin and 92.02 % Forskolin and 88.40 % Forskolin and 88.60 % Forskolin and 88.28 % Forskolin and 92.79 % Forskolin and 82.03 % Forskolin and 98.67 % Forskolin and 72.46 % Forskolin and 83.05 % Forskolin and 92.23 % Forskolin; in assay [1] (WT, Log[C3a (M)] -10, single replicates), 100.49 % Forskolin and 92.00 % Forskolin and 96.47 % Forskolin and 95.65 % Forskolin and 99.73 % Forskolin and 94.19 % Forskolin and 91.55 % Forskolin and 96.59 % Forskolin and 91.09 % Forskolin and 100.53 % Forskolin and 103.10 % Forskolin and 100.18 % Forskolin and 107.39 % Forskolin and 101.42 % Forskolin and 99.05 % Forskolin and 90.86 % Forskolin and 91.78 % Forskolin and 95.04 % Forskolin and 92.70 % Forskolin and 92.81 % Forskolin and 96.03 % Forskolin; in assay [1] (WT, Log[C3a (M)] -11, single replicates), 101.69 % Forskolin and 104.79 % Forskolin and 99.76 % Forskolin and 97.79 % Forskolin and 100.01 % Forskolin and 95.95 % Forskolin and 100.56 % Forskolin and 98.17 % Forskolin and 98.43 % Forskolin and 104.54 % Forskolin and 103.48 % Forskolin and 99.03 % Forskolin and 107.10 % Forskolin and 101.90 % Forskolin and 98.42 % Forskolin and 97.15 % Forskolin and 94.72 % Forskolin and 92.05 % Forskolin and 96.59 % Forskolin and 94.55 % Forskolin and 98.62 % Forskolin; in assay [1] (WT, Log[C3a (M)] -12, single replicates), 96.64 % Forskolin and 93.74 % Forskolin and 99.06 % Forskolin and 103.59 % Forskolin and 106.40 % Forskolin and 103.79 % Forskolin and 101.64 % Forskolin and 99.02 % Forskolin and 93.95 % Forskolin and 101.82 % Forskolin and 99.95 % Forskolin and 96.51 % Forskolin and 98.16 % Forskolin and 96.67 % Forskolin and 94.02 % Forskolin and 101.30 % Forskolin and 98.69 % Forskolin and 95.26 % Forskolin and 98.94 % Forskolin and 96.13 % Forskolin and 98.01 % Forskolin. Moreover, the “cAMP response (% Forskolin)” value in assay [2] (Log[C3a (M)] -7) was 9.91 % Forskolin and 12.64 % Forskolin and 15.55 % Forskolin and 17.18 % Forskolin and 6.28 % Forskolin; in assay [2] (Log[C3a (M)] -8), 29.94 % Forskolin and 34.61 % Forskolin and 37.29 % Forskolin and 78.77 % Forskolin and 47.80 % Forskolin; in assay [2] (Log[C3a (M)] -9), 93.29 % Forskolin and 98.24 % Forskolin and 97.28 % Forskolin and 106.07 % Forskolin and 106.88 % Forskolin; in assay [2] (Log[C3a (M)] -10), 95.65 % Forskolin and 102.82 % Forskolin and 100.47 % Forskolin and 102.58 % Forskolin and 97.30 % Forskolin. Moreover, the “pIC50 ± SEM (Mean)” value in assay [1] (WT C3aR, 1 μM Forskolin, mean of independent experiments) is 8.56. Further, the “pIC50 Value” in assay [1] (WT C3aR, Figure EV1B numerical data, curve fit) was found to be 8.52. Also, the concentration for half-maximal inhibition (IC50) in assay [1] (WT C3aR, decrease in cAMP levels, read-out: IC50) amounted to 2.87 nM. Further, in assay [1] (WT C3aR, individual replicates), the “pIC50 (Replicate)” value is 8.46 and 8.98 and 8.82 and 8.27 and 8.58 and 8.47 (4×) and 8.89 and 8.95 and 8.48 and 8.53 (2×) and 8.50 and 8.45 and 8.54 and 8.67 and 8.44. Moreover, the “Mean Diff. of pIC50, WT vs. Y174A” value in assay [2] (Dunnett's multiple comparisons test, WT minus mutant) was 0.586.
